Test [1] has as its target wild-type Abl1 (ABL1 SH3 domain) (human, UniProt P00519 61-121). The experiment in a line: fluorescence polarisation. On the technique in general: Fluorescence polarisation rises when a labelled molecule tumbles more slowly, as on binding a larger partner.
Test [2] concerns the target Abl1-Pmp52 (ABL1 SH3 domain with Pmp at position 52) (human, 4-phosphomethyl-L-phenylalanine (Pmp) at position 52). The experiment in a line: fluorescence polarisation.

Ends that are not written are not given here.

Sequence of wild-type Abl1 (ABL1 SH3 domain) (P00519 whole entry, looked up, the tested form may be a part): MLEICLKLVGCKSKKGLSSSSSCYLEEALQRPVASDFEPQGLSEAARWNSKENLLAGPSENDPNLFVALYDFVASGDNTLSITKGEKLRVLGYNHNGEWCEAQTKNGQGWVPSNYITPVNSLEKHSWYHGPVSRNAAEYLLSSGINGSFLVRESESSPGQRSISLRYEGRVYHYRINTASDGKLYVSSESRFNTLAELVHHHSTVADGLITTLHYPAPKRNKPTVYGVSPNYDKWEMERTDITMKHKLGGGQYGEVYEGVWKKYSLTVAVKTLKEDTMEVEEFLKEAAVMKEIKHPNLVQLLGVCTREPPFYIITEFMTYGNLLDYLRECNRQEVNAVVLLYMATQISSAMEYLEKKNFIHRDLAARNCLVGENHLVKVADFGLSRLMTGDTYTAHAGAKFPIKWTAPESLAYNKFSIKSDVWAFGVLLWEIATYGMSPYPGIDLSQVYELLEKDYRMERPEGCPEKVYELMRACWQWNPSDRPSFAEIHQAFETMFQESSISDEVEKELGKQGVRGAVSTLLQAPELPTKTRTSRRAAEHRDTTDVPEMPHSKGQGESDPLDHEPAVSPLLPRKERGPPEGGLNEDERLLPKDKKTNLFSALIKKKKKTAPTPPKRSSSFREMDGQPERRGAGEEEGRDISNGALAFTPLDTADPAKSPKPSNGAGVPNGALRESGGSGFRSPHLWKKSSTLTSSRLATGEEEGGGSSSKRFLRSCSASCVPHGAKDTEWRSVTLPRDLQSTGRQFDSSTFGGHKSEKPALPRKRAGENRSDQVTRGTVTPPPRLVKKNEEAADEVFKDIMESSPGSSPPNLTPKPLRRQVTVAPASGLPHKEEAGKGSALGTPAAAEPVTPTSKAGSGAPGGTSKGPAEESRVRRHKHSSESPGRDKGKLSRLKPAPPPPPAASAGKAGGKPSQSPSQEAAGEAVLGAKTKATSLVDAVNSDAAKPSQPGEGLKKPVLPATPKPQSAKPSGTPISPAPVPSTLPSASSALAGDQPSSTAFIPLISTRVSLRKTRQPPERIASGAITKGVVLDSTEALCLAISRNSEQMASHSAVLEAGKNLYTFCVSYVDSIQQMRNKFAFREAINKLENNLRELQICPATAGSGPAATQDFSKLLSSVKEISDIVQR

With PPAYPPPPVP (also: FAM label, position not given here) [3BP2 peptide (FAM labeled)], the Kd in test [1] and in test [2] was 5 ± 0.8 µM each time.
